Test results taken from PMC6834639 (Nature Communications, 2019).
Where two headings read alike, the source gives them in different places. Square brackets hold non-standard residues; d marks the D form. Ends that are not written are not given here.

Molecular target: tetrameric transthyretin (TTR) (Homo sapiens, UniProt P02766)
Assay: In-solution kinetics analysis of TTR-Aβ interactions via OpenSPR
Type: binding
Details: for koff: dissociation rate constant
Procedure: One of the most common applications of SPR is the analysis and quantification of the interactions between proteins. SPR experiments were performed using a Nicoya Lifesciences OpenSPR system equipped with a COOH chip. Following the start-up procedure found in the OpenSPR™ manual, setup the OpenSPR™ instrument and load a COOH Sensor Chip. The COOH surface was activated following the instructions included in the Amine kit. The ligand was diluted to a concentration of 45 μg/mL into immobilization buffer (provided by Nicoya Lifesciences, pH 4.5) and 100 μL was injected at 20 μL/min for a 5-min interaction time. […] Immobilization was monitored via absorbance change in a standard solution of filtered buffer (PBS, pH 6.8, with 0.005% Tween 20) for 5 min at a flow rate of 50 μl/min. The surface was blocked with an injection of 100 μL of blocking buffer (provided by Nicoya Lifesciences, 1 M ethanolamine, pH 8.5). […] An association time of 150 s and a dislocation time of 400 s were used. The surface was regenerated with an injection of regeneration buffer (HCl 10 mM, pH 2.0) at a speed of 150 μL/min between each analyte injection. The chip was washed in 10 mM HCl (pH 2.0) to remove impurities. Data were collected at a rate of 5 Hz and was single referenced with blank injections. Data were fit to a 1:1 interaction model using the analysis software TraceDrawer.

[1] = OpenSPR, Replicate #1, read-out: ka
[2] = OpenSPR, Replicate #2, read-out: ka
[3] = OpenSPR, Replicate #3, read-out: ka
[4] = pH 6.8, OpenSPR, association rate constant, immobilized TTR, PBS pH 6.8, 0.005% Tween 20, 1:1 model, average of three ± SD, read-out: Ka (1/(M*s)) × 10^−2
[5] = OpenSPR, association rate constant, immobilized TTR, PBS pH 6.8, 0.005% Tween 20, 1:1 model, average of three ± SD
[6] = OpenSPR, immobilized TTR, PBS pH 6.8, 0.005% Tween 20, 1:1 model, average of three ± SD

Compound | kon [1] | kon [2] | kon [3] | kon [4] | binding dissociation rate constant higher than the WT Aβ (17–36) fragment (OpenSPR, tetrameric TTR, relative to WT Aβ (17–36)) | Kd (OpenSPR, Replicate #1) | ka (OpenSPR, Replicate #1) | kd (OpenSPR, Replicate #1) | Kd (OpenSPR, Replicate #2) | ka (OpenSPR, Replicate #2) | kd (OpenSPR, Replicate #2) | Kd (OpenSPR, Replicate #3) | ka (OpenSPR, Replicate #3) | kd (OpenSPR, Replicate #3) | Ka (1/(M*s)) × 10^−2 [5] | koff [6]
CC[C@H](C)[C@H](NC(=O)[C@H](C)NC(=O)CNC(=O)[C@H](CCCCN)NC(=O)[C@H](CC(N)=O)NC(=O)[C@H](CO)NC(=O)CNC(=O)[C@@H](NC(=O)[C@H](CC(=O)O)NC(=O)[C@H](CCC(=O)O)NC(=O)[C@H](C)NC(=O)[C@H](Cc1ccccc1)NC(=O)[C@H](Cc1ccccc1)NC(=O)[C@@H](NC(=O)[C@@H](N)CC(C)C)C(C)C)C(C)C)C(=O)N[C@H](C(=O)NCC(=O)N[C@@H](CC(C)C)C(=O)N[C@@H](CCSC)C(=O)N[C@H](C(=O)O)C(C)C)[C@@H](C)CC [WT Aβ (17–36)] | 886 M⁻¹ s⁻¹ | 586 M⁻¹ s⁻¹ | 603 M⁻¹ s⁻¹ | 690 ± 80 M⁻¹ s⁻¹ |  |  |  |  |  |  |  |  |  |  |  | 
CC[C@H](C)[C@H](NC(=O)[C@H](C)NC(=O)CNC(=O)[C@H](CCCCN)NC(=O)[C@H](CC(N)=O)NC(=O)[C@@H](CO)NC(=O)CNC(=O)[C@@H](NC(=O)[C@@H](CC(=O)O)NC(=O)[C@H](CCC(=O)O)NC(=O)[C@H](C)NC(=O)[C@H](Cc1ccccc1)NC(=O)[C@H](Cc1ccccc1)NC(=O)[C@@H](NC(=O)[C@@H](N)CC(C)C)C(C)C)C(C)C)C(=O)N[C@H](C(=O)NCC(=O)N[C@@H](CC(C)C)C(=O)N[C@@H](CCSC)C(=O)N[C@H](C(=O)O)C(C)C)[C@@H](C)CC [dDdS Aβ (17–36)] | 3490 M⁻¹ s⁻¹ | 818 M⁻¹ s⁻¹ | 1470 M⁻¹ s⁻¹ | 1930 ± 700 M⁻¹ s⁻¹ | ~ 13 folds |  |  |  |  |  |  |  |  |  |  | 
dD Aβ (17–36): Aβ (17–36) with D-isomerized Asp (LVFFAE[dD]VGSNKGAIIGLMV) |  |  |  |  |  | 116 µM | 1720 M⁻¹ s⁻¹ | 0.199 s⁻¹ | 199 µM | 489 M⁻¹ s⁻¹ | 0.0975 s⁻¹ | 133 µM | 753 M⁻¹ s⁻¹ | 0.1 s⁻¹ | 9.9 ± 3.2 1/(M*s) × 10^−2 | 13.2 ± 2.9 1/s × 10^2
dS Aβ (17–36): Aβ (17–36) with D-isomerized Ser (LVFFAEDVG[dS]NKGAIIGLMV) |  |  |  |  |  | 86.9 µM | 1660 M⁻¹ s⁻¹ | 0.144 s⁻¹ | 220 µM | 657 M⁻¹ s⁻¹ | 0.144 s⁻¹ | 47.3 µM | 1150 M⁻¹ s⁻¹ | 0.0546 s⁻¹ | 11.6 ± 2.5 1/(M*s) × 10^−2 | 11.4 ± 2.6 1/s × 10^2
